Results taken from paper PMC8769072 (2022).

T1: MAP1A1836-1851 (Homo sapiens (Human), UniProt P78559)
T1 chain: PSWLADIPPWVPKDRP

T2: ITB3763-778 (Homo sapiens (Human), UniProt P05106)
T2 chain: AKWDTANNPLYKEATS

B1: SFN 14-3-3 (protein)
chain: MERASLIQKAKLAEQAERYEDMAAFMKGAVEKGEELSCEERNLLSVAYKNVVGGQRAAWRVLSSIEQKSNEEGSEEKGPEVREYREKVETELQGVCDTVLGLLDSHLIKEAGDAESRVFYLKMKGDYYRYLAEVATGDDKKRIIDSARSAYQEAMDISKKEMPPTNPIRLGLALNFSVFHYEIANSPEEAISLAKTTFDEAMADLHTLSEDSYKDSTLIMQLLRDNLTLWTADNAGEEGGEAPQEPQS
B2: TLN1 PTB (protein)
chain: GVSFFLVKEKMKGKNKLVPRLLGITKECVMRVDEKTKEVIQEWNLTNIKRWAASPKSFTLDFGDYQDGYYSVQTTEGEQIAQLIAGYIDIILK

Legend:
[1] = target: T1, MAP1A1836-1851; assay: FP competition
[2] = target: T2, ITB3763-778; assay: FP competition

Binder | Kd [1] | Kd [2]
B1 | 355 µM | –
B2 | – | 500 µM
